Test results as given in patent US8247227B2, “Dendritic cell precursors” (The Cleveland Clinic Foundation, priority 2006, dated 2012).

Assays:
[1] = system: CD34^pos stem cell subpopulation; experiment: Step 1 proliferative culture of fresh bone marrow: numeric expansion; format: cell-based, mouse
Description: FIG. 6 is a chart showing numeric expansion resulting from the exposure of bone marrow (BM) suspensions to various factors. BM freshly harvested from C57BL/6 mice was cultured for 6 days in the specific factors, then harvested and counted. Each bar represents 3-11 determinations±s.d., each performed in synchronous comparison to at least five other groups. […] Synergistic expansions reflected a 35-80 fold selective outgrowth of the CD34^pos subpopulation (see FIG. 10);
FIG. 10 is a histogram showing gross numeric expansion of fresh bone marrow (BM) reflective of selective outgrowth of the CD34^pos subpopulation. Freshly prepared mouse BM cell suspensions were stained with FITC-anti-CD34 mAb to enable isolation of CD34^pos and CD34^neg subpopulations by a FACSAria cell sorter. CD34^pos cells initially represented 10.8±7% of the total BM cells. The following groups were then cultured for 6 days in 75 cm^2 flasks, either in Flt3L+SCF+IL6 (striped bars) or in Flt3L+IL6 (solid bars): “Unfractionated BM” (12-15 million per flask); “FACS sorted CD34^neg cells” (12-15 million per flask); “FACS sorted CD34^pos cells” (2-3 million per flask); or “FACS sorted, unirradiated CD34^pos cells plus irradiated (3,000 cGy) CD34^neg cells.” Labels above bars indicate fold numeric expansion during the 6 day culture. […] (Not done=group not done);
We cultured fresh mouse BM in two stages, a 6-7 day proliferative phase (Step 1) and a 2-3 day post-proliferative phase (Step 2). […] FACS sorting experiments confirmed that such expansion represented a net 35-80 fold proliferation of the minor (<12%) CD34^pos stem cell subpopulation, with rapid dropout of the initially CD34^neg subpopulation (FIG. 10). Stem cell proliferation persisted well past day 7 if medium and factors were adequately replenished (not shown).
Single cell suspensions were prepared from the femurs and tibias of healthy mice (Kuriyama, H. et al. Dev. Biol. (Basel) 116, 169-178 (2004)). Following RBC lysis by ammonium chloride, no further processing was performed. […] BM cells were normally cultured for 6-7 days, harvested, counted, and washed twice in PBS prior to initiation of Step 2 cultures.

[2] = system: CD11c^pos cells and CD34^pos cells; experiment: In vivo cytokine treatment for six days: spleen and BM CD11c^pos and CD34^pos cells; design: species or system BALB/c mice; conditions: with rhFlt3-L 10 mcg i.p. daily
Source text: FIGS. 15A-D are a series of graphs showing BALB/c mice treated for six days with either (A) nothing, (B) rhFlt3-L 10 mcg i.p. daily, (C) rhIL-6 mcg i.p. three times daily, and (D) rhFlt3-L 10 mcg i.p. daily plus rhIL-6 50 mcg i.p. three times daily. The next day mice were euthanized, spleens and BM harvested, and CD11c^pos cells (committed DC lineage) and CD34^pos cells (stem cells, potential DC precursors) quantified. Results are representative of four experiments. […] This is representative of four experiments;
FIGS. 16A-D are a series of graphs showing BALB/c mice treated for six days with either (A) nothing, (B) rhFlt3-L 10 mcg i.p. daily, (C) rhFlt3-L 10 mcg i.p. daily plus rhIL-6 50 mcg i.p. three times daily, (D) rhFlt3-L 10 mcg i.p. daily plus rhIL-6 50 mcg i.p. once daily, (E) rhFlt3-L 10 mcg i.p. daily plus rhIL-6 10 mcg i.p. three times daily, and (F) rhFlt3-L 10 mcg i.p. daily plus rhIL-6 10 mcg i.p. once times daily. The next day mice were euthanized, spleens and BM harvested, and CD11c^pos cells (committed DC lineage) and CD34^pos cells (stem cells, potential DC precursors) quantified. Results are representative of three experiments.

mouse tumors = conditions: single agent; cited from earlier work
conditioned BM cells = experiment: Tumor contact during Step 2 culture: DC maturation and IL12 production; format: cell-based, mouse
Description: Because DC ingestion of cellular material can induce tolerogenic DCs (Bonifaz, L. et al. J. Exp. Med. 196, 1627-1638 (2002)), we tested the impact of exposing DCs to large volumes of tumor at 16-24 hours of Step 2 culture in GMCSF, to determine tumor's impact on subsequent spontaneous maturation. To cluster plate wells each containing 4 million conditioned BM cells, we added either 4 million freeze-thawed (killed) tumor cells; 3 million irradiated (10,000 cGy), trypan-excluding tumor cells; or 2 million unirradiated, actively proliferating tumor cells. Given the much larger dimensions of viable tumor cells compared to the cultured BM cells, these represented voluminous tumor challenges.
(§1) Step 2 was initiated (0 hr) in CM, rmGMCSF and optionally rmIL4. Step 2 cultures were performed in 24 well cluster plates, 4 million BM cells per well in 2 ml CM. DC1 polarization stimuli such as CpG (ODN 1826, 5 μM) and LPS 50 ng/ml were added between 18-24 hrs, and cells harvested at 40-44 hrs for analyses. When included, immunosuppressive agents rmIL10, rmVEGF, rhTGFβ1 or PGE2 were added between 0 and 24 hrs of Step 2 culture at doses specified in Results. Alternatively, particulate tumor cells, either viable unirradiated, viable irradiated (10,000 cGy), or killed freeze-thawed lysate (Cohen, P A et al. Cancer Res. 54, 1055-1058 (1994)), were added to Step 2 BM cells. Viable tumor cells were sometimes labelled with CFSE (Molecular Probes, Eugene, Oreg.) to allow their identification and exclusion during subsequent FACS analyses (Peng, L. et al. J. Immunol. 169, 4811-4821 (2002)).

BM cells [3] = experiment: Step 2 culture: DC maturation and IL-12 production upon CpG+LPS after Step 1 conditioning; format: cell-based, mouse; conditions: for Step 2 response to TLR agonists (DC maturation) after Step 1 conditioning: CpG+LPS stimulation
Source text: Following Step 1 conditioning, BM cultures were washed thoroughly and exposed to TLR agonists to test the cells' potential for DC maturation and IL-12 production during Step 2 culture. Since TLR9 and TLR4 were invariably expressed by mouse BM cells at the end of Step 1 cultures (not shown), we standardly employed CpG (ODN 1826) and lipopolysaccharide (LPS) to stimulate coordinate activation of MyD88 and TRIF pathways (Napolitani, G. et al. Nat. Immunol. 6, 769-776 (2005)).
as §1
For routine multicolor FACS analyses, BM cells were cultured in anti-CD32 mAb plus normal mouse IgG to block FcRs, then directly stained with conjugated specific mAbs or isotype controls as listed in the figures (BD-Pharmingen, Mountain View, Calif.) (Peng, L. et al. J. Immunol. 165, 5738-5749 (2000)). When additionally assessing IL12 production at the cellular level, the last 16 hrs of Step 2 culture were performed in monensin (Golgistop™, BD-PharMingen). Then, following FcR block and direct staining of surface molecules, cells were fixed in formalin and permeabilized in tween (CytoPerm/CytoFix™, PharMingen), then additionally stained with PE-anti-mouse IL12p40 (BD-Pharmingen) or isotype control.
Assessments of supernatant contents of mIL12p70 heterodimer were performed with BD-Pharmingen reagents. mIFNα and mIFNβ ELISAs were performed with kits from PBL Biomedical Laboratories (New Brunswick, N.J.).

BM cells [4] = experiment: Step 2 culture: spontaneous DC maturation without exogenous maturation stimuli; format: cell-based, mouse
Source text: DC differentiation typically arrests at the immature stage unless DCs are exposed to additional signals such as CD40 ligation, calcium ionophore or TLR agonists (Xu, S. et al. J. Immunol. 171, 2251-2261 (2003); Bonifaz, L. et al. J. Exp. Med. 196, 1627-1638 (2002); Napolitani, G. et al. Nat. Immunol. 6, 769-776 (2005); Czerniecki, B J et al. J. Immunol. 159, 3823-3837 (1997); Mailliard, R B et al. Cancer Res. 64, 5934-5937 (2004)). […] Instead, uniform upregulation of MHC Class II and CD11c ensued within hours of transfer from Flt3L+IL6 into GMCSF, followed by upregulation of CD40, co-stimulatory molecules and CCR7 between 48 and 72 hours of Step 2 culture.
as §1

[5] = single agent; cited from earlier work
L-selectin^low T cells = experiment: T cell co-cultures with variously conditioned DCs; format: cell-based, mouse; conditions: DCs prepared after the named Step 1 conditioning
Description: Step 2 DC cultures were performed in rGMCSF and rIL-4 with irradiated MCA-203 cells added at 24 hr and CpG+LPS added at 44 hr. Four hours later, DCs were harvested for co-culture with L-selectin^low T cells freshly harvested from MCA-203 tumor-bearing mice. T cells were co-cultured with DCs at an 8:1 ratio or were activated with immobilized anti-CD3. […] Cultures shown also received exogenous IL-2, IL-7 and IL-15.
Cultures shown also received exogenous IL2, IL7 and IL15.
Conditioned DC precursors were transferred to Step 2 culture, exposed to viable irradiated tumor, optionally further activated with CpG+LPS, then co-cultured with tolerized TDLN T cells from mice bearing the relevant tumor.
Prior to harvest of T cells from tumor-bearing mice, DCs were prepared under various Step 1 conditions in CM; Step 2 was performed in 1% non heat-deactivated mouse serum instead of FCS (CM-MS), during which BM cultures were exposed to viable irradiated tumor cells, then CpG+LPS as denoted in Results. On the day of DC harvest, T cells were freshly harvested from the tumor-draining lymph nodes of mice bearing 12 day tumors. The L-selectin^low (tolerized pre-effector) fraction of T cells was isolated by negative selection as described previously (Peng, L. et al. J. Immunol. 165, 5738-5749 (2000); Wang, L. et al. J. Translational Med. 2, 41 (2004)), and cultured in CM-MS with immobilized anti-CD3 (Peng, L. et al. J. Immunol. 165, 5738-5749 (2000); Wang, L. et al. J. Translational Med. 2, 41 (2004)) or variously conditioned DCs. Beginning on day 2 of T cell culture, some groups also received rhIL2 (24 I.U./m1), or rhIL2, rhIL7 (50 ng/ml) and rhIL15 (5 ng/ml). T cells were harvested for assays and adoptive therapy after 12 days of culture.

[6] = system: CD11c^pos (committed DC) subpopulation; experiment: In vivo responses to TLR agonists; design: species or system mouse; conditions: i.p. treatment
Description: FIG. 21 is a bar graph showing in vivo responses to TLR agonists. Mice were injected for 6 days with 10 mcg i.p. rhFlt3-L or no treatment. On the subsequent day, some mice were treated with a single i.p. injection for rmGMCSF 12 mcg. On the subsequent day, some mice were injected with i.p. with 50 mcg CpG (ODN 1826) and 100 mcg pI:C. […] The next day, mice were euthanized and spleens counted and analyzed by FACS for the activation status of the CD11c^pos (committed DC) subpopulation. MHC Class II, CD40, and CD86 (B7.2) were co-analyzed.

STAT3KO BM = experiment: Conditioning of STAT3 knockout BM; format: cell-based, mouse
Description: (§2) FIG. 18 illustrates responses of STAT knockout vs. wildtype littermate BM to Flt3-L+IL-6 vs. GMCSF-containing conditioning regiments. […] BM was obtained from KO mice or from matched wildtype LMs, placed in standard Step 1 cultures with Flt3-L+IL-6, Flt3-L+IL-6+GMCSF, or GMCSF alone as conditioning agents, then placed in 48 hr Step 2 cultures with GMCSF+IL-4 with CpG+LPS included during the final 18 hours. […] Data are presented as mean±s.d. of 3 replicates and are representative of three (STAT5KO vs LM) or two (STAT3KO vs LM) independently performed experiments;
(§3) We examined how STAT knockout BM preparations responsed to Flt3L+IL-6 conditioning. […] Therefore, the proliferative and differentiative impacts of Flt3-L+IL-6 conditioning were absolutely STAT3-dependent, whereas final phenotypic maturation and DC1-polarization were at least partially STAT5-dependent.
(§4) We also examined how STATKO BM preparations responded to GMCSF-containing Step 1 regimens (GMCSF alone, Flt3-L+GMCSF, or Flt3-L+GMCSF+IL-6). […] Therefore, all tested GMCSF-containing regimens promoted STAT5-dependent DC differentiation, with later phenotypic maturation and DC1-polarization proving susceptible to inhibition through STAT3.

STAT5KO BM = experiment: Conditioning of STAT5 knockout BM; format: cell-based, mouse
Description: as §2, §3, §4

Molecule: rhIL6: recombinant human interleukin-6
- effectiveness as alternative Step 1 factor ([1]; rhIL6 100 ng/ml instead of mIL6, rSCF instead of mSCF): also effective
- 10 mcg versus 50 mcg dosing [2]: as effective as 50 mcg dosing
- thrice daily versus once daily administration [2]: more effective than once daily

B1: interleukin-6 (protein, UniProt P08505 25-211, looked up)
Interleukin-6: FPTSQVRRGDFTEDTTPNRPVYTTSQVGGLITHVLWEIVEMRKELCNGNSDCMNNDDALAENNLKLPEIQRNDGCYQTGYNQEICLLKISSGLLEYHSYLEYMKNNLKDNKKDKARVLQRDTETLIHIFNQEVKDLHKIVLPTPISNALLTDKLESQKEWLRTKTIQFILKSLEEFLKVTLRSTRQT
- therapeutic properties against established mouse tumors (mouse tumors): extremely potent therapeutic properties

B2: IFNγ: recombinant mouse interferon gamma (protein, UniProt P01580 23-155, looked up)
Interferon gamma: HGTVIESLESLNNYFNSSGIDVEEKSLFLDIWRNWQKDGDMKILQSQIISFYLRLFEVLKDNQAISNNISVIESHLITTFFSNSKAKKDAFMSIAKFEVNNPQVQRQAFNELIRVVHQLLPESSLRKRKRSRC
- IL12 production (conditioned BM cells; IFNγ treatment alone): Neither tumor nor IFNγ treatment alone induced IL12 production
- IL12 (p70) production (conditioned BM cells; tumor exposure combined with IFNγ, Flt3L+IL6 conditioned): could induce IL12 (p70) production

B3: Flt3 ligand (protein, UniProt P49771 27-235, looked up)
Fms-related tyrosine kinase 3 …: TQDCSFQHSPISSDFAVKIRELSDYLLQDYPVTVASNLQDEELCGGLWRLVLAQRWMERLKTVAGSKMQGLLERVNTEIHFVTKCAFQPPPSCLRFVQTNISRLLQETSEQLVALKPWITRQNFSRCLELQCQPDSSTLPPPWSPRPLEATAPTAPQPPLLLLLLLPVGLLLLAAAWCLHWQRTRRRTPRPGEQVPPVPSPQDLLLVEH
notes: recombinant human Flt3 ligand, gift of Amgen
- numeric expansion during Step 1 culture ([1]; fresh mouse BM, 6-7 day Step 1 culture): yielded only a fraction of culture input
- Step 2 response to TLR agonists (DC maturation) after Step 1 conditioning (BM cells [3]): nearly global licensing for pronounced TLR reactivity
- spontaneous DC maturation during Step 2 culture (BM cells [4]; after Step 1 conditioning, no exogenous maturation stimuli): spontaneous tendency to complete DC maturation
- myeloproliferative activity in animals [5]: highly myeloproliferative

B4: granulocyte-macrophage colony stimulating factor (protein, UniProt P01587 18-141, looked up)
Granulocyte-macrophage …: APTRSPITVTRPWKHVEAIKEALNLLDDMPVTLNEEVEVVSNEFSFKKLTCVQTRLKIFEQGLRGNFTKLKGALNMTASYYQTYCPPTPETDCETQVTTYADFIDSLKTFLTDIPFECKKPGQK
notes: murine GMCSF from Immunex
- Step 2 response to TLR agonists (DC maturation) after Step 1 conditioning (BM cells [3]): infrequent and/or blunted responses to the TLR agonists
- effect of GMCSF addition during Step 2 culture (BM cells [3]; GMCSF added in Step 2 only): not at all inhibitory
- effect of co-conditioning with GMCSF on Flt3L+IL6's licensing impact (BM cells [3]; GMCSF present in Step 1): abrogated
- effect of GMCSF as Step 1 agent on licensing of spontaneous DC maturation by Flt3L or Flt3L+IL6 (BM cells [4]): fully abrogated
- effect of GMCSF as Step 1 agent on licensing of tumor-induced activation by Flt3L+IL6 (conditioned BM cells): fully abrogated
- effect of conditioned DCs on tolerized T cell co-cultures (proliferation / toxicity) (L-selectin^low T cells): ineffective for propagating the T cells
- activation of maturation markers MHC Class II, CD40, CD86 on CD11c^pos spleen cells [6]: further enhanced
- survival / proliferation of STAT3KO BM in Step 1 conditioning (STAT3KO BM): normal proliferation kinetics
- maturational and IL-12p70 response of STAT3KO DCs (STAT3KO BM; TLR stimulation, Step 2): abnormally heightened maturational and IL-12p70 response to TLR stimulation
- proliferation and DC differentiation of STAT5KO BM (STAT5KO BM): strikingly ineffective for generating DCs
